Measurements as given in PMC12364344.

Target: His6-BacA_(F134R), purified (Asticcacaulis biprosthecum)
Assay: SEC; 500 µl of purified proteins from the polymerization assay on Superdex 200 Increase 10/300 GL, column calibrated with standard proteins

His6-BacA_(F134R), purified (natural protein)
stoichiometry N: 2
